Measurements published in paper PMC10397247.
One block for each binder: values may come before it.

What was measured:
[1] = target: T1, P2-AA-1HGe-T; experiment: two-hybrid library CCmax; settings: mean of both orientations;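 further: natural log of median RNA to DNA barcode read ratio; higher means stronger binding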
T1 chain: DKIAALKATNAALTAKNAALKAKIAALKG

[2] = target: T2, P2-AA; experiment: two-hybrid library CCmax; settings: mean of both orientations;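 further: natural log of median RNA to DNA barcode read ratio; higher means stronger binding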
T2 chain: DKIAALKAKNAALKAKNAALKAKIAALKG

[3] = target: T3, P2-AA-1HGe-D; experiment: two-hybrid library CCmax; settings: mean of both orientations;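 further: natural log of median RNA to DNA barcode read ratio; higher means stronger binding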
T3 chain: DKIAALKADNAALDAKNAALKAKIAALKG

[4] = target: T4, P2-AA-1HGe-M; experiment: two-hybrid library CCmax; settings: mean of both orientations;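 further: natural log of median RNA to DNA barcode read ratio; higher means stronger binding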
T4 chain: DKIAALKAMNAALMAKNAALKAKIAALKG

[5] = target: T5, P2-AA-1HGe-Q; experiment: two-hybrid library CCmax; settings: mean of both orientations
T5 chain: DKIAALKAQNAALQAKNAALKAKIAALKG

[6] = target: T6, P2-AA-1HGe-H; experiment: two-hybrid library CCmax; settings: mean of both orientations
T6 chain: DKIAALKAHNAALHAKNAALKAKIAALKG

[7] = target: T7, P2-AA-1HGe-A; experiment: two-hybrid library CCmax; settings: mean of both orientations
T7 chain: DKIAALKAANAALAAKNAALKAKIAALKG

[8] = target: T8, 4H_BCR; experiment: two-hybrid library CCmax; settings: mean of both orientations
T8 chain: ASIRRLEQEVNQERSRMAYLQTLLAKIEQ

[9] = target: 4H_GCN4; experiment: two-hybrid library CCmax
[10] = target: T9, 4H_APH; experiment: two-hybrid library CCmax
T9 chain: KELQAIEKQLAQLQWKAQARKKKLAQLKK

[11] = target: T10, 4H895-AA; experiment: two-hybrid library CCmax; settings: mean of both orientations
T10 chain: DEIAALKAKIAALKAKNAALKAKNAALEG

[12] = target: T11, 4H486-AA; experiment: two-hybrid library CCmax; settings: mean of both orientations
T11 chain: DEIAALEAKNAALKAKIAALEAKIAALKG

[13] = target: T12, 4H58-AA; experiment: two-hybrid library CCmax; settings: mean of both orientations
T12 chain: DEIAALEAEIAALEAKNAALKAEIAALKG

[14] = target: T13, 4H465-AA; experiment: two-hybrid library CCmax
T13 chain: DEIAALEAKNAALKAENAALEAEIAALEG

[15] = target: T14, 4H535-AA; experiment: two-hybrid library CCmax; settings: mean of both orientations
T14 chain: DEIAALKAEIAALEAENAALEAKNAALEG

[16] = target: GCN2_T; experiment: two-hybrid library CCmax
[17] = target: T15, 4H470-bN; experiment: two-hybrid library CCNG1
T15 chain: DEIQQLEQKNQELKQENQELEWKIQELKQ

[18] = target: T16, 4H3907-bN; experiment: two-hybrid library CCNG1
T16 chain: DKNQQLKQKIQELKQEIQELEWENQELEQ

[19] = target: T17, 4H1406-bN; experiment: two-hybrid library CCNG1
T17 chain: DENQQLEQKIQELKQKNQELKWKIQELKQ

[20] = target: T18, 4H344-bN; experiment: two-hybrid library CCNG1
T18 chain: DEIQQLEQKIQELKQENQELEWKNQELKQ

[21] = target: T19, 4H2568-bN; experiment: two-hybrid library CCNG1
T19 chain: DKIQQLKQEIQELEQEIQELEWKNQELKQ

[22] = target: T20, 4H1387-bN; experiment: two-hybrid library CCNG1
T20 chain: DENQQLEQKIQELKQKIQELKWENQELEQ

[23] = target: T21, 4H363-bN; experiment: two-hybrid library CCNG1
T21 chain: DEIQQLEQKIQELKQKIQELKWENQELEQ

[24] = target: T22, 4H1072-bN; experiment: two-hybrid library CCNG1
T22 chain: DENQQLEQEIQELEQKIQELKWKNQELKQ

[25] = target: T23, 4H3961-bN; experiment: two-hybrid library CCNG1
T23 chain: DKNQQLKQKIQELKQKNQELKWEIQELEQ

[26] = target: T24, 4H2745-bN; experiment: two-hybrid library CCNG1
T24 chain: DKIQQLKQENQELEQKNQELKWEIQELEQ

[27] = target: T25, 4H2619-bN; experiment: two-hybrid library CCNG1
T25 chain: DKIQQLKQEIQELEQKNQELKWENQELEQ

[28] = target: T26, 4H4038-bN; experiment: two-hybrid library CCNG1
T26 chain: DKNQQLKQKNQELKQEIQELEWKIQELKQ

[29] = target: T27, 4H3592-bN; experiment: two-hybrid library CCNG1
T27 chain: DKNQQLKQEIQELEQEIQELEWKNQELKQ

[30] = target: T28, 4H3601-bN; experiment: two-hybrid library CCNG1
T28 chain: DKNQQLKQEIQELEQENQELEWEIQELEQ

[31] = target: T29, 4H1193-bN; experiment: two-hybrid library CCNG1
T29 chain: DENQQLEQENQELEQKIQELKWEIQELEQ

4H_GCN4, sequence (chain, as listed by the source): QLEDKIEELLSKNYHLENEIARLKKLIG

interaction score [1]: 1.71
interaction score [2]: 1.8
interaction score [3]: 1.6
interaction score [4]: 1.8
interaction score [5]: 2.16
interaction score [6]: 1.57
interaction score [7]: 2.34
B1: P1-AA-1HGe-H (peptide)
chain: DEIAALEAHNAALHAENAALEAEIAALEG

interaction score [8]: -1.2
interaction score [9]: -2.34
interaction score [1]: 2.11
interaction score [10]: -1.84
interaction score [11]: -1.13
interaction score [2]: 1.61
interaction score [3]: 1.36
interaction score [12]: -1.47
interaction score [4]: 1.47
interaction score [13]: 0.877
interaction score [14]: -1.82
interaction score [15]: -1.58
interaction score [5]: 1.82
interaction score [6]: 1.53
interaction score [16]: -1.97
interaction score [7]: 1.85
B2: 4H465-AA (peptide)
chain: DEIAALEAKNAALKAENAALEAEIAALEG

interaction score [17]: 0.0488
interaction score [18]: 1.91
interaction score [19]: -0.693
interaction score [20]: -0.983
interaction score [21]: -0.182
interaction score [22]: 0.922
interaction score [23]: 1.58
interaction score [24]: 0.692
interaction score [25]: 0.231
interaction score [26]: -0.0701
interaction score [27]: 0.775
interaction score [28]: 0.389
interaction score [29]: 0.235
interaction score [30]: -0.0449
interaction score [31]: -0.235
B3: 4H1072-bN (peptide)
chain: DENQQLEQEIQELEQKIQELKWKNQELKQ
